From US20110166062A1 (INDIANA UNIVERSITY RESEARCH AND TECHNOLOGY, published 2011) come the findings set out here.

Bridges are numbered along the chain shown (N, C = ends). Where no end group is shown, it is not given here.

Holding throughout (experiment): cell-based or functional assay
The target in test [1] is glucagon receptor (UniProt P47871 26-477, limits assumed).
Test [2] has as its target GLP-1 receptor (UniProt P43220 24-463, limits assumed).
For test [3], the target named is T1, GIP receptor (UniProt P48546 22-466).
T1 sequence (looked up): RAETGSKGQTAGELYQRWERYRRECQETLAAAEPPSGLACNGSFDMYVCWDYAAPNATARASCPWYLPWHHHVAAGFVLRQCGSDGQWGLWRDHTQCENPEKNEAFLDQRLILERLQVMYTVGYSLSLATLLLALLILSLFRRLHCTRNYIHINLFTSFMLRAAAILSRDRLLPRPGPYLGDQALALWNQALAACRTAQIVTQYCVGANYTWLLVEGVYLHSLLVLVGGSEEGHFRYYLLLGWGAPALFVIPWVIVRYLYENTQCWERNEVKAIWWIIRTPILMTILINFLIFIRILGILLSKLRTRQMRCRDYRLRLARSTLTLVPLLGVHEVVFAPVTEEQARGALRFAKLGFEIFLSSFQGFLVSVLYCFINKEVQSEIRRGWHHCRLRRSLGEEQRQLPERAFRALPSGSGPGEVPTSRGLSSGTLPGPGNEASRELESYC

glucagon receptor, sequence (P47871 26-477 limits assumed): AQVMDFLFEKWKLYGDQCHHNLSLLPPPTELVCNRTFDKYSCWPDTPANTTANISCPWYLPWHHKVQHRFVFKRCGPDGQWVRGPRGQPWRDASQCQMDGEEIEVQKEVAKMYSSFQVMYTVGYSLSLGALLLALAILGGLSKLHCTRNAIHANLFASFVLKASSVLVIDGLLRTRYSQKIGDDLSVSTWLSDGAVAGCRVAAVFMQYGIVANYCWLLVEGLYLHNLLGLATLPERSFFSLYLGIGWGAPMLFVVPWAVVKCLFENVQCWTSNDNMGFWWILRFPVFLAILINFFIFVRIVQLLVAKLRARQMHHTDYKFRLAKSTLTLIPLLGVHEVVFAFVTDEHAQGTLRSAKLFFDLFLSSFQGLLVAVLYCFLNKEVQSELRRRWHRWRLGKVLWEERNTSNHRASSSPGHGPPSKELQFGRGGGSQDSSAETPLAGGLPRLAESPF

B1: mt-128 (peptide)
peptide: HSQGTFTSDYSKYLDEIHQKDFIAWLMNGGPSSGAPPPS-NH2
modifications: lactam 16-20; N-terminus assumed
SMILES: CC[C@H](C)[C@H](NC(=O)[C@H](Cc1ccccc1)NC(=O)[C@H](CC(=O)O)NC(=O)[C@@H]1CCCCNC(=O)CC[C@H](NC(=O)[C@H](CC(=O)O)NC(=O)[C@H](CC(C)C)NC(=O)[C@H](Cc2ccc(O)cc2)NC(=O)[C@H](CCCCN)NC(=O)[C@H](CO)NC(=O)[C@H](Cc2ccc(O)cc2)NC(=O)[C@H](CC(=O)O)NC(=O)[C@H](CO)NC(=O)[C@@H](NC(=O)[C@H](Cc2ccccc2)NC(=O)[C@@H](NC(=O)CNC(=O)[C@H](CCC(N)=O)NC(=O)[C@H](CO)NC(=O)[C@@H](N)Cc2c[nH]cn2)[C@@H](C)O)[C@@H](C)O)C(=O)N[C@@H]([C@@H](C)CC)C(=O)N[C@@H](Cc2c[nH]cn2)C(=O)N[C@@H](CCC(N)=O)C(=O)N1)C(=O)N[C@@H](C)C(=O)N[C@@H](Cc1c[nH]c2ccccc12)C(=O)N[C@@H](CC(C)C)C(=O)N[C@@H](CCSC)C(=O)N[C@@H](CC(N)=O)C(=O)NCC(=O)NCC(=O)N1CCC[C@H]1C(=O)N[C@@H](CO)C(=O)N[C@@H](CO)C(=O)NCC(=O)N[C@@H](C)C(=O)N1CCC[C@H]1C(=O)N1CCC[C@H]1C(=O)N1CCC[C@H]1C(=O)N[C@@H](CO)C(N)=O
By EC50 is commonly meant the midpoint of the concentration-response curve. Turning to B1, the “EC50” value was 0.773 nM in test [1], 0.12 nM in test [2] and 14.6 nM in test [3]. The relative activity was determined as 11.1% in test [1], 33.3% in test [2] and 0.42% in test [3].

B2: mt-129 (peptide)
peptide: YSQGTFTSDYSKYLDEIHQKDFIAWLMNGGPSSGAPPPS-NH2
modifications: lactam 16-20; N-terminus assumed
SMILES: CC[C@H](C)[C@H](NC(=O)[C@H](Cc1ccccc1)NC(=O)[C@H](CC(=O)O)NC(=O)[C@@H]1CCCCNC(=O)CC[C@H](NC(=O)[C@H](CC(=O)O)NC(=O)[C@H](CC(C)C)NC(=O)[C@H](Cc2ccc(O)cc2)NC(=O)[C@H](CCCCN)NC(=O)[C@H](CO)NC(=O)[C@H](Cc2ccc(O)cc2)NC(=O)[C@H](CC(=O)O)NC(=O)[C@H](CO)NC(=O)[C@@H](NC(=O)[C@H](Cc2ccccc2)NC(=O)[C@@H](NC(=O)CNC(=O)[C@H](CCC(N)=O)NC(=O)[C@H](CO)NC(=O)[C@@H](N)Cc2ccc(O)cc2)[C@@H](C)O)[C@@H](C)O)C(=O)N[C@@H]([C@@H](C)CC)C(=O)N[C@@H](Cc2c[nH]cn2)C(=O)N[C@@H](CCC(N)=O)C(=O)N1)C(=O)N[C@@H](C)C(=O)N[C@@H](Cc1c[nH]c2ccccc12)C(=O)N[C@@H](CC(C)C)C(=O)N[C@@H](CCSC)C(=O)N[C@@H](CC(N)=O)C(=O)NCC(=O)NCC(=O)N1CCC[C@H]1C(=O)N[C@@H](CO)C(=O)N[C@@H](CO)C(=O)NCC(=O)N[C@@H](C)C(=O)N1CCC[C@H]1C(=O)N1CCC[C@H]1C(=O)N1CCC[C@H]1C(=O)N[C@@H](CO)C(N)=O
Take B2: the “EC50” value in test [1] came to 0.952 nM; in test [2], 4.07 nM; in test [3], 2.88 nM. The relative activity in test [1] turned out to be 17.3%; in test [2], 1.12%; in test [3] it was 2.06%.

B3: mt-125 (peptide)
peptide: YSQGTFTSDYSIYMDEIHQKDFVNWLLAQ-NH2
modifications: lactam 16-20; N-terminus assumed
SMILES: CC[C@H](C)[C@H](NC(=O)[C@H](CO)NC(=O)[C@H](Cc1ccc(O)cc1)NC(=O)[C@H](CC(=O)O)NC(=O)[C@H](CO)NC(=O)[C@@H](NC(=O)[C@H](Cc1ccccc1)NC(=O)[C@@H](NC(=O)CNC(=O)[C@H](CCC(N)=O)NC(=O)[C@H](CO)NC(=O)[C@@H](N)Cc1ccc(O)cc1)[C@@H](C)O)[C@@H](C)O)C(=O)N[C@@H](Cc1ccc(O)cc1)C(=O)N[C@@H](CCSC)C(=O)N[C@@H](CC(=O)O)C(=O)N[C@H]1CCC(=O)NCCCC[C@@H](C(=O)N[C@@H](CC(=O)O)C(=O)N[C@@H](Cc2ccccc2)C(=O)N[C@H](C(=O)N[C@@H](CC(N)=O)C(=O)N[C@@H](Cc2c[nH]c3ccccc23)C(=O)N[C@@H](CC(C)C)C(=O)N[C@@H](CC(C)C)C(=O)N[C@@H](C)C(=O)N[C@@H](CCC(N)=O)C(N)=O)C(C)C)NC(=O)[C@H](CCC(N)=O)NC(=O)[C@H](Cc2c[nH]cn2)NC(=O)[C@H]([C@@H](C)CC)NC1=O
In the case of B3, the “EC50” value came out at 5.74 nM in test [1], 1.26 nM in test [2] and 0.275 nM in test [3]. Further, the figures for the relative activity in test [1], in test [2] and in test [3] were 9.06%, 3.17% and 19.6%, respectively.

B4: mt-124 (peptide)
peptide: HSQGTFTSDYSIYMDEIHQKDFVNWLLAQ-NH2
modifications: lactam 16-20; N-terminus assumed
SMILES: CC[C@H](C)[C@H](NC(=O)[C@H](CO)NC(=O)[C@H](Cc1ccc(O)cc1)NC(=O)[C@H](CC(=O)O)NC(=O)[C@H](CO)NC(=O)[C@@H](NC(=O)[C@H](Cc1ccccc1)NC(=O)[C@@H](NC(=O)CNC(=O)[C@H](CCC(N)=O)NC(=O)[C@H](CO)NC(=O)[C@@H](N)Cc1c[nH]cn1)[C@@H](C)O)[C@@H](C)O)C(=O)N[C@@H](Cc1ccc(O)cc1)C(=O)N[C@@H](CCSC)C(=O)N[C@@H](CC(=O)O)C(=O)N[C@H]1CCC(=O)NCCCC[C@@H](C(=O)N[C@@H](CC(=O)O)C(=O)N[C@@H](Cc2ccccc2)C(=O)N[C@H](C(=O)N[C@@H](CC(N)=O)C(=O)N[C@@H](Cc2c[nH]c3ccccc23)C(=O)N[C@@H](CC(C)C)C(=O)N[C@@H](CC(C)C)C(=O)N[C@@H](C)C(=O)N[C@@H](CCC(N)=O)C(N)=O)C(C)C)NC(=O)[C@H](CCC(N)=O)NC(=O)[C@H](Cc2c[nH]cn2)NC(=O)[C@H]([C@@H](C)CC)NC1=O
For B4, the concentration giving a half-maximal response (EC50) amounted to 2.43 nM in test [1], 0.04 nM in test [2] and 5.79 nM in test [3]. Further, the relative activity in test [1] is 8.64%; in test [2], 100%; in test [3], 0.95%.

B5: mt-140 (peptide)
peptide: YSQGTFTSDYSIYLDEQAAKEFVNWLLAGGPSSGAPPPS-NH2
modifications: lactam 16-20; N-terminus assumed
SMILES: CC[C@H](C)[C@H](NC(=O)[C@H](CO)NC(=O)[C@H](Cc1ccc(O)cc1)NC(=O)[C@H](CC(=O)O)NC(=O)[C@H](CO)NC(=O)[C@@H](NC(=O)[C@H](Cc1ccccc1)NC(=O)[C@@H](NC(=O)CNC(=O)[C@H](CCC(N)=O)NC(=O)[C@H](CO)NC(=O)[C@@H](N)Cc1ccc(O)cc1)[C@@H](C)O)[C@@H](C)O)C(=O)N[C@@H](Cc1ccc(O)cc1)C(=O)N[C@@H](CC(C)C)C(=O)N[C@@H](CC(=O)O)C(=O)N[C@H]1CCC(=O)NCCCC[C@@H](C(=O)N[C@@H](CCC(=O)O)C(=O)N[C@@H](Cc2ccccc2)C(=O)N[C@H](C(=O)N[C@@H](CC(N)=O)C(=O)N[C@@H](Cc2c[nH]c3ccccc23)C(=O)N[C@@H](CC(C)C)C(=O)N[C@@H](CC(C)C)C(=O)N[C@@H](C)C(=O)NCC(=O)NCC(=O)N2CCC[C@H]2C(=O)N[C@@H](CO)C(=O)N[C@@H](CO)C(=O)NCC(=O)N[C@@H](C)C(=O)N2CCC[C@H]2C(=O)N2CCC[C@H]2C(=O)N2CCC[C@H]2C(=O)N[C@@H](CO)C(N)=O)C(C)C)NC(=O)[C@H](C)NC(=O)[C@H](C)NC(=O)[C@H](CCC(N)=O)NC1=O
As for B5, the concentration giving a half-maximal response (EC50) is 0.149 nM in test [1], 0.068 nM in test [2] and 0.366 nM in test [3]. Also, the relative activity in test [1] amounted to 131%; in test [2] it was 49.6%; in test [3], 12.8%.

B6: mt-141 (peptide)
peptide: YSQGTFTSDYSKYMDEQAAKEFVNWLLAGGPSSGAPPPS-NH2
modifications: lactam 16-20; N-terminus assumed
SMILES: CSCC[C@H](NC(=O)[C@H](Cc1ccc(O)cc1)NC(=O)[C@H](CCCCN)NC(=O)[C@H](CO)NC(=O)[C@H](Cc1ccc(O)cc1)NC(=O)[C@H](CC(=O)O)NC(=O)[C@H](CO)NC(=O)[C@@H](NC(=O)[C@H](Cc1ccccc1)NC(=O)[C@@H](NC(=O)CNC(=O)[C@H](CCC(N)=O)NC(=O)[C@H](CO)NC(=O)[C@@H](N)Cc1ccc(O)cc1)[C@@H](C)O)[C@@H](C)O)C(=O)N[C@@H](CC(=O)O)C(=O)N[C@H]1CCC(=O)NCCCC[C@@H](C(=O)N[C@@H](CCC(=O)O)C(=O)N[C@@H](Cc2ccccc2)C(=O)N[C@H](C(=O)N[C@@H](CC(N)=O)C(=O)N[C@@H](Cc2c[nH]c3ccccc23)C(=O)N[C@@H](CC(C)C)C(=O)N[C@@H](CC(C)C)C(=O)N[C@@H](C)C(=O)NCC(=O)NCC(=O)N2CCC[C@H]2C(=O)N[C@@H](CO)C(=O)N[C@@H](CO)C(=O)NCC(=O)N[C@@H](C)C(=O)N2CCC[C@H]2C(=O)N2CCC[C@H]2C(=O)N2CCC[C@H]2C(=O)N[C@@H](CO)C(N)=O)C(C)C)NC(=O)[C@H](C)NC(=O)[C@H](C)NC(=O)[C@H](CCC(N)=O)NC1=O
For the molecule B6, the figures for the “EC50” value in test [1], in test [2] and in test [3] were 0.15 nM, 0.16 nM and 0.747 nM, respectively. Moreover, the relative activity in test [1] was 269%; in test [2] it was 36.8%; in test [3], 10%.
